IC50 data for 22 molecules are collected here from patent US7005505 (Genentech, dated 2006).

Assay [1] deals with T1, FLT-1 IgG (UniProt P17948 27-758).
T1 construct: Construct only cited from Park et al. 1994; also called FLT-IgG; FLT-1 receptor-IgG chimera; not shown: IgG part of the chimera (captured by anti-human IgG Fc)
The assay is described as follows: competition with 125I-VEGF165 for FLT-1-IgG, radioligand plate assay. How it is done: (§1) After the supernatant was discarded, the wells were washed three times in washing buffer (0.01% Tween 80 in PBS). The plate was blocked (300 µl/well) for one hr in assay buffer (0.5% BSA, 0.03% Tween 80, 0.01% Thimerosal in PBS). The supernatant was discarded and the wells were washed. […] Aliquots of this solution (100 µl) were added to pre-coated microtiter plates and incubated for 4 hr at ambient temperature with gentle agitation. The supernatant was discarded, the plate washed, and individual microtiter wells were counted by gamma scintigraphy (LKB model 1277).

For assay [2], the target named is T1, FLT-1 IgG. Briefly: competition with 125I-VEGF165 for FLT-1-IgG, radioligand plate assay, no heparin. How it is done:
as §1

Assay [3] has as its target T1, FLT-1 IgG. The assay is described as follows: competition with 125I-VEGF165 for FLT-1-IgG, radioligand plate assay. How it is done:
as §1
The source holds these as a separate data set.

T1 sequence (P17948 27-758): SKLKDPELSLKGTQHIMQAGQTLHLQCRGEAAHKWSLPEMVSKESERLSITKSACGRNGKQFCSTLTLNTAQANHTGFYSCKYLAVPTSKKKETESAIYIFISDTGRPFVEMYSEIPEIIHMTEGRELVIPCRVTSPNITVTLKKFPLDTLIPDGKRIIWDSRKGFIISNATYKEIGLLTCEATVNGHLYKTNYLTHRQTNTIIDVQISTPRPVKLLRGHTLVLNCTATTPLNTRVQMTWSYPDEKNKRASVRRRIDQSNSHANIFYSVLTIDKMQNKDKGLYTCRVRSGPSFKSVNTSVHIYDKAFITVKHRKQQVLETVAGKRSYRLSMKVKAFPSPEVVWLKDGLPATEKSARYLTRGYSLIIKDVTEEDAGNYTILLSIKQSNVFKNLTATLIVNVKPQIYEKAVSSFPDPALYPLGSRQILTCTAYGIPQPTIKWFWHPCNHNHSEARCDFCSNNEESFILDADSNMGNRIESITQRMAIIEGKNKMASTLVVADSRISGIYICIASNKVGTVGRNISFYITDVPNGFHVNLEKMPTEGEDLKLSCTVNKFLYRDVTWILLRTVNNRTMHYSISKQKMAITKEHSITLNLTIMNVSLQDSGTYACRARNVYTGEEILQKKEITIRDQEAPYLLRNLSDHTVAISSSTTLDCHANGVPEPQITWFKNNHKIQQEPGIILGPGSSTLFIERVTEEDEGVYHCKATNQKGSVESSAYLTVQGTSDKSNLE

B1: D34A VEGF (ligand)
chain: APMAEGGGQNHHEVVKFMDVYQRSYCHPIETLVAIFQEYPDEIEYIFKPSCVPLMRCGGCCNDEGLECVPTEESNITMQIMRIKPHQGQHIGEMSFLQHNKCECRPKKDRARQENPCGPCSERRKHLFVQDPQTCKCSCKNTDSRCKARQLELNERTCRCDKPRR
notes: VEGF165 mutant from 293 cells, conditioned medium
For B1, the IC50 stood at 0.59 ng/mL in assay [1] and 0.011 nM in assay [2].

B2: purified CHO-derived VEGF165 (ligand)
chain: APMAEGGGQNHHEVVKFMDVYQRSYCHPIETLVDIFQEYPDEIEYIFKPSCVPLMRCGGCCNDEGLECVPTEESNITMQIMRIKPHQGQHIGEMSFLQHNKCECRPKKDRARQENPCGPCSERRKHLFVQDPQTCKCSCKNTDSRCKARQLELNERTCRCDKPRR
notes: Homodimer; also called VEGF (CHO cell); wildtype VEGF165 derived from CHO cells
With B2, the IC50 in assay [1] was determined as 0.95 ng/mL; in assay [3], 0.95 ng/mL; in assay [2], 0.019 nM.

B3: H90A, E93A VEGF (ligand)
chain: APMAEGGGQNHHEVVKFMDVYQRSYCHPIETLVDIFQEYPDEIEYIFKPSCVPLMRCGGCCNDEGLECVPTEESNITMQIMRIKPHQGQAIGAMSFLQHNKCECRPKKDRARQENPCGPCSERRKHLFVQDPQTCKCSCKNTDSRCKARQLELNERTCRCDKPRR
notes: VEGF165 mutant from 293 cells, conditioned medium; also called H9OA, E93A
With B3, the IC50 came to 0.077 ng/mL in assay [1] and 0.026 nM in assay [2].

B4: H11A, H12A, E13A VEGF (ligand)
chain: APMAEGGGQNAAAVVKFMDVYQRSYCHPIETLVDIFQEYPDEIEYIFKPSCVPLMRCGGCCNDEGLECVPTEESNITMQIMRIKPHQGQHIGEMSFLQHNKCECRPKKDRARQENPCGPCSERRKHLFVQDPQTCKCSCKNTDSRCKARQLELNERTCRCDKPRR
notes: as for B1
Take B4: the IC50 came out at 0.62 ng/mL in assay [1] and 0.02 nM in assay [2].

B5: E38A VEGF (ligand)
chain: APMAEGGGQNHHEVVKFMDVYQRSYCHPIETLVDIFQAYPDEIEYIFKPSCVPLMRCGGCCNDEGLECVPTEESNITMQIMRIKPHQGQHIGEMSFLQHNKCECRPKKDRARQENPCGPCSERRKHLFVQDPQTCKCSCKNTDSRCKARQLELNERTCRCDKPRR
notes: as for B1
Regarding B5, the 50% inhibitory concentration (IC50) in assay [1] was found to be 0.87 ng/mL; in assay [2], 0.015 nM.

B6: R105A VEGF (ligand)
chain: APMAEGGGQNHHEVVKFMDVYQRSYCHPIETLVDIFQEYPDEIEYIFKPSCVPLMRCGGCCNDEGLECVPTEESNITMQIMRIKPHQGQHIGEMSFLQHNKCECAPKKDRARQENPCGPCSERRKHLFVQDPQTCKCSCKNTDSRCKARQLELNERTCRCDKPRR
notes: as for B1
In the case of B6, the concentration for half-maximal inhibition (IC50) in assay [1] was 1.57 ng/mL; in assay [2], 0.038 nM.

B7: E64S VEGF (ligand)
chain: APMAEGGGQNHHEVVKFMDVYQRSYCHPIETLVDIFQEYPDEIEYIFKPSCVPLMRCGGCCNDSGLECVPTEESNITMQIMRIKPHQGQHIGEMSFLQHNKCECRPKKDRARQENPCGPCSERRKHLFVQDPQTCKCSCKNTDSRCKARQLELNERTCRCDKPRR
notes: preparation not described further
B7: the IC50 in assay [3] was found to be 1.9 ng/mL.

B8: H99A, K101A VEGF (ligand)
chain: APMAEGGGQNHHEVVKFMDVYQRSYCHPIETLVDIFQEYPDEIEYIFKPSCVPLMRCGGCCNDEGLECVPTEESNITMQIMRIKPHQGQHIGEMSFLQANACECRPKKDRARQENPCGPCSERRKHLFVQDPQTCKCSCKNTDSRCKARQLELNERTCRCDKPRR
notes: as for B1
For B8, the figures for the IC50 in assay [1] and in assay [2] were 1.33 ng/mL and 0.03 nM, respectively.

B9: R82A VEGF (ligand)
chain: APMAEGGGQNHHEVVKFMDVYQRSYCHPIETLVDIFQEYPDEIEYIFKPSCVPLMRCGGCCNDEGLECVPTEESNITMQIMAIKPHQGQHIGEMSFLQHNKCECRPKKDRARQENPCGPCSERRKHLFVQDPQTCKCSCKNTDSRCKARQLELNERTCRCDKPRR
notes: as for B1
Take B9: the IC50 in assay [3] was 1.23 ng/mL; in assay [2], 0.02 nM.

B10: KKDR(107-110)AAAA VEGF (ligand)
chain: APMAEGGGQNHHEVVKFMDVYQRSYCHPIETLVDIFQEYPDEIEYIFKPSCVPLMRCGGCCNDEGLECVPTEESNITMQIMRIKPHQGQHIGEMSFLQHNKCECRPAAAAARQENPCGPCSERRKHLFVQDPQTCKCSCKNTDSRCKARQLELNERTCRCDKPRR
notes: VEGF165 mutant from 293 cells, conditioned medium; also called K107A, K108A, D109A, R110A
B10: the values for the half-maximal inhibitory concentration (IC50) in assay [1] and in assay [2] were 2.42 ng/mL and 0.054 nM, respectively.

B11: N75A VEGF (ligand)
chain: APMAEGGGQNHHEVVKFMDVYQRSYCHPIETLVDIFQEYPDEIEYIFKPSCVPLMRCGGCCNDEGLECVPTEESAITMQIMRIKPHQGQHIGEMSFLQHNKCECRPKKDRARQENPCGPCSERRKHLFVQDPQTCKCSCKNTDSRCKARQLELNERTCRCDKPRR
notes: Unglycosylated form of VEGF from 293 cells, conditioned medium
As to B11, the IC50 worked out at 1.26 ng/mL in assay [1] and 0.022 nM in assay [2].

B12: D63A, E64A, E67A VEGF (ligand)
chain: APMAEGGGQNHHEVVKFMDVYQRSYCHPIETLVDIFQEYPDEIEYIFKPSCVPLMRCGGCCNAAGLACVPTEESNITMQIMRIKPHQGQHIGEMSFLQHNKCECRPKKDRARQENPCGPCSERRKHLFVQDPQTCKCSCKNTDSRCKARQLELNERTCRCDKPRR
notes: as for B1
Consider B12, for which the IC50 in assay [3] turned out to be 44.6 ng/mL; in assay [2], 0.78 nM.

B13: E42N, E44S VEGF (ligand)
chain: APMAEGGGQNHHEVVKFMDVYQRSYCHPIETLVDIFQEYPDNISYIFKPSCVPLMRCGGCCNDEGLECVPTEESNITMQIMRIKPHQGQHIGEMSFLQHNKCECRPKKDRARQENPCGPCSERRKHLFVQDPQTCKCSCKNTDSRCKARQLELNERTCRCDKPRR
modifications: N-linked carbohydrate at position 42 (apparently glycosylated)
notes: Neo-glycosylation control mutant from 293 cells, conditioned medium
As to B13, the values for the 50% inhibitory concentration (IC50) in assay [1] and in assay [2] were 0.77 ng/mL and 0.013 nM, respectively.

B14: E67A VEGF (ligand)
chain: APMAEGGGQNHHEVVKFMDVYQRSYCHPIETLVDIFQEYPDEIEYIFKPSCVPLMRCGGCCNDEGLACVPTEESNITMQIMRIKPHQGQHIGEMSFLQHNKCECRPKKDRARQENPCGPCSERRKHLFVQDPQTCKCSCKNTDSRCKARQLELNERTCRCDKPRR
notes: as for B1
B14: the IC50 was determined as 0.47 ng/mL in assay [3] and 0.008 nM in assay [2].

B15: K107A, K108A VEGF (ligand)
chain: APMAEGGGQNHHEVVKFMDVYQRSYCHPIETLVDIFQEYPDEIEYIFKPSCVPLMRCGGCCNDEGLECVPTEESNITMQIMRIKPHQGQHIGEMSFLQHNKCECRPAADRARQENPCGPCSERRKHLFVQDPQTCKCSCKNTDSRCKARQLELNERTCRCDKPRR
notes: as for B1
For the molecule B15, the IC50 is 2.94 ng/mL in assay [1] and 0.066 nM in assay [2].

B16: E103A VEGF (ligand)
chain: APMAEGGGQNHHEVVKFMDVYQRSYCHPIETLVDIFQEYPDEIEYIFKPSCVPLMRCGGCCNDEGLECVPTEESNITMQIMRIKPHQGQHIGEMSFLQHNKCACRPKKDRARQENPCGPCSERRKHLFVQDPQTCKCSCKNTDSRCKARQLELNERTCRCDKPRR
notes: as for B1
Regarding B16, the half-inhibitory concentration (IC50) was found to be 0.74 ng/mL in assay [1] and 0.017 nM in assay [2].

B17: E5A VEGF (ligand)
chain: APMAAGGGQNHHEVVKFMDVYQRSYCHPIETLVDIFQEYPDEIEYIFKPSCVPLMRCGGCCNDEGLECVPTEESNITMQIMRIKPHQGQHIGEMSFLQHNKCECRPKKDRARQENPCGPCSERRKHLFVQDPQTCKCSCKNTDSRCKARQLELNERTCRCDKPRR
notes: as for B1
In assay [2], B17 yielded an IC50 of 0.022 nM.

B18: R82A, K84A, H86A VEGF (ligand)
chain: APMAEGGGQNHHEVVKFMDVYQRSYCHPIETLVDIFQEYPDEIEYIFKPSCVPLMRCGGCCNDEGLECVPTEESNITMQIMAIAPAQGQHIGEMSFLQHNKCECRPKKDRARQENPCGPCSERRKHLFVQDPQTCKCSCKNTDSRCKARQLELNERTCRCDKPRR
notes: VEGF165 mutant from 293 cells, conditioned medium; also called R82A, K84A, H86 VEGF
For B18, the IC50 in assay [3] was found to be 1.7 ng/mL; in assay [2], 0.048 nM.

B19: K84A VEGF (ligand)
chain: APMAEGGGQNHHEVVKFMDVYQRSYCHPIETLVDIFQEYPDEIEYIFKPSCVPLMRCGGCCNDEGLECVPTEESNITMQIMRIAPHQGQHIGEMSFLQHNKCECRPKKDRARQENPCGPCSERRKHLFVQDPQTCKCSCKNTDSRCKARQLELNERTCRCDKPRR
notes: as for B1
Regarding B19, the values for the IC50 in assay [3] and in assay [2] were 1.91 ng/mL and 0.024 nM, respectively.

B20: E72A, E73A VEGF (ligand)
chain: APMAEGGGQNHHEVVKFMDVYQRSYCHPIETLVDIFQEYPDEIEYIFKPSCVPLMRCGGCCNDEGLECVPTAASNITMQIMRIKPHQGQHIGEMSFLQHNKCECRPKKDRARQENPCGPCSERRKHLFVQDPQTCKCSCKNTDSRCKARQLELNERTCRCDKPRR
notes: as for B1
For the molecule B20, the concentration for half-maximal inhibition (IC50) in assay [1] is 0.91 ng/mL; in assay [2] it was 0.03 nM.

B21: E30A VEGF (ligand)
chain: APMAEGGGQNHHEVVKFMDVYQRSYCHPIATLVDIFQEYPDEIEYIFKPSCVPLMRCGGCCNDEGLECVPTEESNITMQIMRIKPHQGQHIGEMSFLQHNKCECRPKKDRARQENPCGPCSERRKHLFVQDPQTCKCSCKNTDSRCKARQLELNERTCRCDKPRR
notes: as for B1
B21: the IC50 in assay [2] was found to be 0.028 nM.

B22: D41A VEGF (ligand)
chain: APMAEGGGQNHHEVVKFMDVYQRSYCHPIETLVDIFQEYPAEIEYIFKPSCVPLMRCGGCCNDEGLECVPTEESNITMQIMRIKPHQGQHIGEMSFLQHNKCECRPKKDRARQENPCGPCSERRKHLFVQDPQTCKCSCKNTDSRCKARQLELNERTCRCDKPRR
notes: as for B1
Consider B22, for which the IC50 in assay [2] turned out to be 0.022 nM.
